According to patent publication US20190352426A1, “PLAZOMICIN ANTIBODIES AND METHODS OF USE” (Achaogen, Inc., priority 2016, published 2019):

Experiments:
Type in all cases: binding
[1] = competitive ELISA on BSA-bromo-plazomicin coated plates, free plazomicin; conditions: free plazomicin 0.013-270 μg/ml incubated with antibody at 0.05 nM, then added to BSA-bromo-plazomicin-coated ELISA plates
Description: (§1) The purified antibodies were then analyzed for binding to BSA-plazomicin by ELISA (the tested concentrations of antibodies ranged from 0.0001 nM to 100 nM). (FIG. 1A) and competitive ELISA (FIG. 1B) on BSA-bromo-plazomicin coated ELISA plates. For competitive ELISAs, free aminoglycosides (plazomicin, gentamicin, amikacin, and sisomicin) at concentrations; 270 μg/ml, 90 μg/ml 30 μg/ml, 10 μg/ml, 3.3 μg/ml, 1.1 μg/ml, 0.4 μg/ml, 0.12 μg/ml, 0.04 μg/ml and 0.013 μg/ml were incubated with one of 10 purified monoclonal antibodies derived from the cell cultures described above; MC329, MC330, MC331, MC332, MC334, […], […], MC337, MC339, MC340 at 0.05 nM concentration (FIG. 1B). The antibody/aminoglycoside solutions were then added to BSA-bromo-plazomicin-coated ELISA plates. Plates were washed to remove unbound antibody, and IC50 values (μg/mL) were determined for each aminoglycoside and are shown below in Table 5.

[2] = competitive ELISA on BSA-bromo-plazomicin coated plates, free sisomicin; conditions: free sisomicin 0.013-270 μg/ml incubated with antibody at 0.05 nM, then added to BSA-bromo-plazomicin-coated ELISA plates
Description: as §1

[3] = competitive ELISA on BSA-bromo-plazomicin coated plates, free gentamicin; conditions: free gentamicin 0.013-270 μg/ml incubated with antibody at 0.05 nM, then added to BSA-bromo-plazomicin-coated ELISA plates
Description: as §1

B1: MC334: murine monoclonal anti-plazomicin antibody; heavy chain variable SEQ ID NO 58, light chain variable SEQ ID NO 62 (antibody, listed as Mus musculus, V domains shown)
VH: QVQLQQSGAELMKPGASVKISCKATGYKFSRYWIEWVKESPGHGLEWIGEIFPGSDSTDYNEKFKGKATLTADSSSNTAYMQLSSLTSEDSAVYYCARDGGGLDEFAYWGQGTPVIVSA
VL: DVVVTQIPLSLSVSFGDQVSISCRSSQSLTNSYGYTYLSWYLHKPGQSPQLLIYGISNRFSGVPDRFSGSGSGTDFTLKISTIKPEDLGMYYCLQGTHQPYTFGGGTKLEIR
[1]
  Antibiotic IC50 Values for Aminoglycosides: Plazomicin: 0.72 µg/mL

B2: MC332: murine monoclonal anti-plazomicin antibody; heavy chain variable SEQ ID NO 50, light chain variable SEQ ID NO 54 (antibody, listed as Mus musculus, V domains shown)
VH: QVQLQQSGAELMKPGASVKISCKATGYKFSRYWIEWVKESPGHGLEWIGEIFPGSDSTDYNEKFKGKATLTADSSSNTAYMQLSSLTSEDSAVYYCARDGGGLDEFAYWGQGTPVIVSA
VL: DVVVTQNPLSLSVSFGDQVSISCRSSQSLTNSYGYTYLSWYLHKPGQSPQLLIYGISNRFSGVPDRFSGSGSGTDFTLKISTIKPEDLGMYYCLQGTHQPYTFGGGTKLEIR
[1]
  Antibiotic IC50 Values for Aminoglycosides: Plazomicin: 0.94 µg/mL

B3: MC335: murine monoclonal anti-plazomicin antibody; heavy chain variable SEQ ID NO 66, light chain variable SEQ ID NO 70 (antibody, listed as Mus musculus, V domains shown)
VH: AGQLKESGPGLVKPSQSLSLTCTVTGSSITSDYAWNWIRQFPGNKLEWMGYISQSGSTSYNPSLKSRISITRDTSKNQFFLQLNSVTTEDTATYYCTGNSYTMDYWGQGTSVTVSS
VL: DIVMTQSPKFLLVSAGDRVTITCKASQSVSNDVAWYQQKPGQSPKLLISYASNRYTGVPDRFTGSGYGTDFTFTITTVQAEDLAVYFCQQDYSSPWTFGGGTKLEIK
[1]
  Antibiotic IC50 Values for Aminoglycosides: Plazomicin: 0.59 µg/mL
[2]
  Antibiotic IC50 Values for Aminoglycosides: Sisomicin: 69.0 µg/mL

B4: MC340: murine monoclonal anti-plazomicin antibody; heavy chain variable SEQ ID NO 98, light chain variable SEQ ID NO 102 (antibody, listed as Mus musculus, V domains shown)
VH: QVTLKESGGGLVQPGGSMKISCVVSGLTFRNYWMSWVRQSPEKGLEWVAEIRLKSDNYATHYAESVKGKFTISRDDSKSRLYLQMNSLRAEDTGIYYCTVYGKDFDYWGQGTTLTVSS
VL: DVVMTQTPKFLLVSAGDRVTITCKASQSVSNDVAWYQQKPGQSPKLLISYASNRYTGVPDRFTGSGYGTDFTFTISTVQAEDLAVYFCQQDYSSPWTFGGGTKLEIK
[1]
  Antibiotic IC50 Values for Aminoglycosides: Plazomicin: 19.0 µg/mL
[2]
  Antibiotic IC50 Values for Aminoglycosides: Sisomicin: 153 µg/mL

B5: MC337: murine monoclonal anti-plazomicin antibody; heavy chain variable SEQ ID NO 82, light chain variable SEQ ID NO 86 (antibody, listed as Mus musculus, V domains shown)
VH: QVQLQQPGPELVKPGASVKMSCKASGYTFTSYVIHWVKQKPGQGLEWIGYINPFNDGTKYNEKFKGKATLTSDKSSSTAYMELSSLTSEDSAVYYCEGVGSSGSDYWGQGTTLTVSS
VL: DIVMTQTPKFLLVSAGDRVTITCKASQSVRNDVAWYQQKPGQSPKLLISYASNRYTGVPDRFTGSGYGTDFTFTISTVQAEDLAIYFCQQDYSSPYTFGGGTKLEIK
[3]
  Antibiotic IC50 Values for Aminoglycosides: Gentamicin: 107.6 µg/mL
[1]
  Antibiotic IC50 Values for Aminoglycosides: Plazomicin: 0.06 µg/mL
[2]
  Antibiotic IC50 Values for Aminoglycosides: Sisomicin: 16.1 µg/mL

B6: MC330: murine monoclonal anti-plazomicin antibody; heavy chain variable SEQ ID NO 34, light chain variable SEQ ID NO 38 (antibody, listed as Mus musculus, V domains shown)
VH: SDVQLQESGPGLVTPSQSLSLTCTVTGYSITSAYAWNWIRQFPGNKLEWLGYINSSGSTSYHPSLKGRISITRDTSKNQFFLQLNSVTTEDTATYYCTHTTSYFDYWGQGTTLTVSS
VL: SIVMTQTPKFLIVSAGDRVTITCKASQSVSNDVAWYQQKPGQSPKLLISYASNRYTGVPDRFTGSGYGTDFTFAITTVQAEDLAVYFCQQDYSSPYTFGGGTKVEIK
[3]
  Antibiotic IC50 Values for Aminoglycosides: Gentamicin: 92.0 µg/mL
[1]
  Antibiotic IC50 Values for Aminoglycosides: Plazomicin: 0.02 µg/mL
[2]
  Antibiotic IC50 Values for Aminoglycosides: Sisomicin: 9.9 µg/mL

B7: MC336: murine monoclonal anti-plazomicin antibody; heavy chain variable SEQ ID NO 74, light chain variable SEQ ID NO 78 (antibody, listed as Mus musculus, V domains shown)
VH: QMQLQESGPGLVKPSQSLSLTCTVTGDSITSDYAWNWIRQFPGNKLEWMGYISYSGSTSYNPSLKSRISISRDTSKNQFFLQLNSVTIEDTATYYCTGNSYTMDYWGQGTSVTVSS
VL: SIVMTQTPKFLLVSAGDRVTITCKASQSVSNDVAWYQQKPGQSPNLLISYASNRYTGVPDRFTGSGYGTDFTFTISTVQAEDLAVYFCQQDYISPWTFGGGTKLEIK
[3]
  Antibiotic IC50 Values for Aminoglycosides: Gentamicin: ~106.1 µg/mL
[1]
  Antibiotic IC50 Values for Aminoglycosides: Plazomicin: 0.25 µg/mL
[2]
  Antibiotic IC50 Values for Aminoglycosides: Sisomicin: 37.6 µg/mL

B8: MC331: murine monoclonal anti-plazomicin antibody; heavy chain variable SEQ ID NO 42, light chain variable SEQ ID NO 46 (antibody, listed as Mus musculus, V domains shown)
VH: QVQLQQSGAELAKPGASVKMSCKASGNTFTSYWMHWIKQRPGQGLEWIGYIDPSTGYTEYNQKFKDRATLTADKSSNTAYMQLNSLTSEDSAVYYCTKSGKWDDYWGQGTTLTVSS
VL: SIVMTQTPKFLLVSAGDRVTITCKASQSVTNDVAWYQQKPGQSPKLLICYASNRYTGVPDRFTGSGYGTDFTFTISTVQAEDLAVYFCQQDHTSPFTFGGGTKLEIK
[3]
  Antibiotic IC50 Values for Aminoglycosides: Gentamicin: 214.4 µg/mL
[1]
  Antibiotic IC50 Values for Aminoglycosides: Plazomicin: 0.43 µg/mL
[2]
  Antibiotic IC50 Values for Aminoglycosides: Sisomicin: 83.0 µg/mL

B9: MC329: murine monoclonal anti-plazomicin antibody from hybridoma MC329; heavy chain variable SEQ ID NO 22, light chain SEQ ID NO 26, 30 (antibody, listed as Mus musculus, V domains shown)
VH: SDVQLQESGPGLVKPSQSLSLTCTVTGYSITTNYAWNWIRQFPGHKLEWMGYITSSGRTSYNPPLKSRISITRDTSRSQFFLRLNSVTTEDTATYFCTHTTAYLDYWGQGTTLTVSS
VL 1: SIVMTQTPKFLLVSAGDRVTITCKASQSVSNDVAWYQQKPGQSPKLLISYASNRYTGVPDRFTGSGYGTDFAFTINTVQAEDLAFYFCQQDYSSPYTFGGGTKLEIK
VL 2: DIKMTQSPSSMYASLGERVTITCKASQDIKSYLSWYQQIPWKSPKTLIYYATSLADGVPSRFSGSGSGQDYSLTISSLESDDTATYYCLQHGESPLTFGAGTKLELK
[3]
  Antibiotic IC50 Values for Aminoglycosides: Gentamicin: 107.0 µg/mL
[1]
  Antibiotic IC50 Values for Aminoglycosides: Plazomicin: 0.43 µg/mL
[2]
  Antibiotic IC50 Values for Aminoglycosides: Sisomicin: 83.0 µg/mL

B10: MC339: murine monoclonal anti-plazomicin antibody; heavy chain variable SEQ ID NO 90, light chain variable SEQ ID NO 94 (antibody, listed as Mus musculus, V domains shown)
VH: QVQLVQSGPELVKPGASVKVSCKASGFSFTDYNMYWVKQSHGKSLEWIGYIDPYNGGTSYNQKFKGKATLTFDKSSSTAFMHLNSLTSEDSAVYYCASAGNYDDYWGQGTTLTVSS
VL: DIVMTQTPKFLLVSAGDRVTITCKASQSVSNDVAWYQQKPGQSPTLLIYYASNRYTGVPDRFTGSGYGTDFTFTISTVQAEDLAVYFCQQDYTSPYTFGGGTKLEIK
[3]
  Antibiotic IC50 Values for Aminoglycosides: Gentamicin: ~101.7 µg/mL
[1]
  Antibiotic IC50 Values for Aminoglycosides: Plazomicin: 0.12 µg/mL
[2]
  Antibiotic IC50 Values for Aminoglycosides: Sisomicin: 24.4 µg/mL
